Like-named read-outs stand apart in the source and are kept apart here.

Four substances from paper PMC4534130 can be followed below.

Test [1] deals with Human FcγRIIIa_V158 (human).
Test [2] has as its target Human FcγRIIIa_V158 (human). The source holds these as a separate data set.

As to IgG1, di-sialylated variant (antibody), the relative ADCC activity (NK cell line expressing FcγRIIIa V158; target cells expressing a receptor of the EGFR family; relative to a reference material set to 100%) in test [1] stood at 115%.

On to “IgG1, hyper-galactosylated variant (antibody)”, for which the relative ADCC activity (NK cell line expressing FcγRIIIa V158; target cells expressing a receptor of the EGFR family; relative to a reference material set to 100%) in test [2] is 118%.

For “IgG1, hypo-galactosylated variant (antibody)”, the relative ADCC activity (NK cell line expressing FcγRIIIa V158; target cells expressing a receptor of the EGFR family; relative to a reference material set to 100%) in test [2] was found to be 66%.

Take “IgG1, mono-sialylated variant (antibody)”: the relative ADCC activity (NK cell line expressing FcγRIIIa V158; target cells expressing a receptor of the EGFR family; relative to a reference material set to 100%) in test [1] was determined as 104%.
